Measured values reported in patent US20120258099A1.
Residue numbers refer to the chain shown, from its start. One block for each binder: values may come before it. Ends that are not written are not given here. GST = glutathione S-transferase tag encoded by vector pGEX-5X2

What was measured:
[1] = target: MBP-Tgat (aa 1-255) (UniProt O75962); assay: cell-based or functional assay
[2] = target: MBP-Tgat (aa 1-255) (UniProt O75962); assay: FRET mant-GTP nucleotide exchange kinetics; kobs against GST-TRIP peptide concentration (up to 100 µM), hyperbolic fit; RhoA 1 µM, Tgat 0.5 µM

efficiency at inhibiting the exchange activity of Tgat, against TRIPα [1]: 15 fold
Ki [2]: 7.4 µM
B1: GST-TRIPE32G (peptide, not shown: a dimerising Fc or GST; large carriers; small tags and cut ends)
peptide: AREGADGAICGYNLATLVMLGPSERVFCPLCGPCSSDIYELM
modifications: not fully specified (N-terminus); cysteine pairing not given here; also: fused to GST, GST carrier and linker letters not given here

efficiency at inhibiting the exchange activity of Tgat, against TRIPα [1]: 15 fold
Ki [2]: 5.1 µM
B2: GST-TRIPT16M/L17S (peptide, not shown: a dimerising Fc or GST; large carriers; small tags and cut ends)
peptide: B1 peptide with T16M, L17S, G32E
modifications: not fully specified (N-terminus); cysteine pairing not given here; also: fused to GST, GST carrier and linker letters not given here

Ki [2]: 89 µM
B3: GST-TRIPα (peptide, not shown: a dimerising Fc or GST)
chain: {GST}-AREGADGAICGYNLATLVMLGPSERVFCPLCEPCSSDIYELM
modifications: cysteine pairing not given here; also: fused to GST, GST carrier and linker letters not given here
